One experiment concerns the target T1, cynomolgus 5T4 on cells (cynomolgus macaque, UniProt Q4R8Y9 35-420).
T1 construct: whole, on cells; also called CHO-K1/cynomolgus 5T4 transfectants
T1 sequence (looked up): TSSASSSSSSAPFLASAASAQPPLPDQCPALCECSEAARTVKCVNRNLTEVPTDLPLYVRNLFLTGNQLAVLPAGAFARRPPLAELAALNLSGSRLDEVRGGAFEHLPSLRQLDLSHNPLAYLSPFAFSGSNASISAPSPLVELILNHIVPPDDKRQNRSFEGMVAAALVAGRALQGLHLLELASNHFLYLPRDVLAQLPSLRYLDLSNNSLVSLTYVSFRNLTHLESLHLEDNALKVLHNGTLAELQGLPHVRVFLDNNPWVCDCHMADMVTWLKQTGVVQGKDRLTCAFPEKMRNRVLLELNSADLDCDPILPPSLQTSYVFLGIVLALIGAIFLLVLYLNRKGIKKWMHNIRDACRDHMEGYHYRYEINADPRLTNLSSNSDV
The experiment in a line: flow cytometry, CHO-K1 cells expressing cynomolgus 5T4, labelled anti-human IgG secondary, MFI (median). How it is done:
(§1) Binding studies were performed by standard flow cytometry-based staining procedures two cell lines expressing 5T4:CHO-K1 cells (obtained from Alligator) transduced with human or cynomolgus macaque 5T4 and SKOV-3 human ovarian adenocarcinoma cells which express (human) 5T4. All labeling and washes were performed in U-bottom 96-well plates in saline buffer with 0.1% BSA and 2 mM EDTA. Cell were plated at approximately 100,000 cells per well and incubated with a range of 100 nM to 0.05 nM concentrations of test molecules in […], for 30 minutes on ice. Cells were washed three times then incubated for another 30 min on ice with fluorescently-labeled secondary polyclonal antibody, F(ab′)² goat anti-human IgG (Jackson ImmunoResearch Laboratories). The cells were then washed twice and the samples acquired in a BD LSRII or a Symphony A3 flow cytometer. The sample files were analyzed using FlowJo software; the mean fluorescence intensity (MFI-mean) or median fluorescence intensity (MFI-median) of the live population of cells in each well was calculated after gating on live cells (forward vs side scatter). Nonlinear regression analysis to determine EC₅₀ values was performed in GraphPad Prism 6® graphing and statistics software.
On the technique in general: In flow cytometry, cells or beads pass a laser one at a time.

Experiment [1] deals with T2, human 5T4 on cells (human, UniProt Q13641 32-420).
T2 construct: also called TPBG; hu5T4
T2 sequence: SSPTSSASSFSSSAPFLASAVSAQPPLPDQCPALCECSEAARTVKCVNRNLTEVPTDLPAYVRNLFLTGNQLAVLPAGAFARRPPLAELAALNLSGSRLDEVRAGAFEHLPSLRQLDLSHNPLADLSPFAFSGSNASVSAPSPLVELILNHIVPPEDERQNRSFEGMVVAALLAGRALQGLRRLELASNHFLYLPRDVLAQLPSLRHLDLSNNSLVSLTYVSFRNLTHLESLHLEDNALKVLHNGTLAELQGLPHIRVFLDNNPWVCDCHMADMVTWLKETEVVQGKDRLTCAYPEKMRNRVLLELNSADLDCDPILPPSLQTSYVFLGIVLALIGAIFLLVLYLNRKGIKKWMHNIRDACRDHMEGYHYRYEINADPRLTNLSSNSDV
Description: flow cytometry, CHO-K1 cells expressing human 5T4, labelled anti-human IgG secondary, MFI (mean). How it is done:
as §1

Experiment [2] concerns the target T3, human CD137 on cells (human, UniProt Q07011 24-255).
T3 construct: also called 4-1BB; TNFRSF9 (CHO-K1/human CD137 cells)
Description: flow cytometry, CHO-K1 cells expressing human CD137, PE anti-human IgG Fc secondary, MFI (median). How it is done:
(§2) Binding studies on CHO-K1 cells lines expressing CD137 were performed by standard flow cytometry-based staining procedures. CHO-K1 cells (generated by Alligator) were transfected with human or cynomolgus macaque CD137. A typical experiment would label approximately 100,000 cells per well, in 96-well plates, with a range of 100 nM to 0.05 nM binding molecule in 50 μL of saline buffer with 2% BSA and 2 mM EDTA, for 30 min on ice, followed by washes and incubation with PE-labeled secondary antibody, goat anti-human IgG Fcγ ([…]), for 20 minutes on ice. Signal from bound molecules was detected using a LSR-II™ or a Symphony A3 flow cytometer (BD Biosciences) and analyzed by FlowJo flow cytometry analysis software. Median fluorescence intensity (MFI-median) of bound molecules on live cells was determined after exclusion of doublets cells. Nonlinear regression analysis to determine EC₅₀ values was performed in GraphPad Prism 6® graphing and statistics software.

The target of experiment [3] is T3, human CD137 on cells. Description: cell-based or functional assay.
Experiment [4] deals with T4, cynomolgus CD137 on cells (cynomolgus macaque, UniProt A9YYE7 24-254).
T4 construct: whole, on cells; also called CHO-K1/cynomolgus CD137 cell line; cynomolgus monkey CD137 on CD3-stimulated primary CD8 T cells
T4 sequence (A9YYE7 entry or part of it): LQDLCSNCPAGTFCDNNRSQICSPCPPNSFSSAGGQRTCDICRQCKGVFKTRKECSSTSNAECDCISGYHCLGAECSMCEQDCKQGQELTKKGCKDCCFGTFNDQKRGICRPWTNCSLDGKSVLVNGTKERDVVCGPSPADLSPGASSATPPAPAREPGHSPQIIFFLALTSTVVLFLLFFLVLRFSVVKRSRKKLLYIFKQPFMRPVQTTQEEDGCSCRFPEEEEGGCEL
Description: flow cytometry, CHO-K1 cells expressing cynomolgus CD137, PE anti-human IgG Fc secondary, MFI (median). How it is done:
as §2

Experiment [5] deals with T2, human 5T4 on cells. Description: flow cytometry, SKOV-3 cells (endogenous human 5T4), labelled anti-human IgG secondary, MFI (mean). How it is done: as §1

Some results are limits rather than exact numbers.

T3 sequence (Q07011 24-255 limits assumed): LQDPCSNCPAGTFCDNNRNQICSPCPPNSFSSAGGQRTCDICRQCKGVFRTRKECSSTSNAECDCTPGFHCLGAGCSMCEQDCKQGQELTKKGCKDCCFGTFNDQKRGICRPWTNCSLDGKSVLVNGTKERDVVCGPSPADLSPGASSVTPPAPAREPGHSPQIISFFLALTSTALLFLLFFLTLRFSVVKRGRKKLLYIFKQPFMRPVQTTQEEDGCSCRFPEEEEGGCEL

B1: ALG.APV-191 (bispecific antibody)
chain: EVQLLESGGGLVQPGGSLRLSCAASGFTFDYGSMYWVRQAPGKGLEWVSSISSGSGSTYYADSVKGRFTISHDNSKNTLYLQMNSLRAEDTAVYYCARSSYYGSYYSIDYWGQGTLVTVSSGGGGSGGGGSGGGGSGGGGSDIQMTQSPSSLSASVGDRVTITCRASQSISSYLNWYQQKPGKAPKLLIYAASSLHSGVPSRFSGSGSGTDFTLTISSLQPEDFATYYCQQYYDNLPTFGQGTKLEIKSSEPKSSDKTHTCPPCPAPEAAGAPSVFLFPPKPKDTLMISRTPEVTCVVVDVSHEDPEVKFNWYVDGVEVHNAKTKPREEQYNSTYRVVSVLTVLHQDWLNGKEYKCAVSNKALPAPIEKTISKAKGQPREPQVYTLPPSRDELTKNQVSLTCLVKGFYPSDIAVEWESNGQPENNYKTTPPVLDSDGSFFLYSKLTVDKSRWQQGNVFSCSVMHEALHNHYTQKSLSLSPGSGGGGSGGGGSGGGGSPSEVQLLESGGGLVQPGGSLRLSCAASGFTFSSYAMSWVRQAPGKCLEWVSAISGSGGSTYYADSVKGRFTISRDNSKNTLYLQMNSLRAEDTAVYYCARYYGGYYSAWMDYWGQGTLVTVSSGGGGSGGGGSGGGGSGGGGSDIQMTQSPSSLSASVGDRVTITCRASQSISSFLNWYQQKPGKAPKLLIYAASSLQSGVPSRFSGSGSGTDFTLTISSLQPEDFATYYCQQTYGYLHTFGCGTKLEIKS
notes: Optimized ADAPTIR scFv-Fc-scFv homodimer
For B1, the EC50 – broadly, the midpoint of the concentration-response curve – with cynomolgus 5T4 on cells came out at 22 nM; with human 5T4 on cells [1], 10.9 nM; in the experiment with human CD137 on cells [2], 1.1 nM; in experiment [4] it was 1.7 nM. The “Maximum MFI” value amounted to 25100 with cynomolgus 5T4 on cells and 14100 in the experiment with human 5T4 on cells [1]. The “CD137 reporter assay with HCC1143 cells, EC50 against ALG.APV-006 and ALG.APV-004” value (from here on “CD137 reporter assay with HCC1143 cells”) with human CD137 on cells [3] was no more than 6 fold lower EC50.

B2: ALG.APV-198 (bispecific antibody)
chain: EVQLLESGGGLVQPGGSLRLSCAASGFTFSHGSMYWVRQAPGKGLEWVSSISSGSGSTYYADSVKGRFTISHDNSKNTLYLQMNSLRAEDTAVYYCARSSYYGSYYSIDYWGQGTLVTVSSGGGGSGGGGSGGGGSGGGGSDIQMTQSPSSLSASVGDRVTITCRASQSISSYLNWYQQKPGKAPKLLIYAASSLQSGVPSRFSGSGSGTDFTLTISSLQPEDFATYYCQQYYDNLPTFGQGTKLEIKSSEPKSSDKTHTCPPCPAPEAAGAPSVFLFPPKPKDTLMISRTPEVTCVVVDVSHEDPEVKFNWYVDGVEVHNAKTKPREEQYNSTYRVVSVLTVLHQDWLNGKEYKCAVSNKALPAPIEKTISKAKGQPREPQVYTLPPSRDELTKNQVSLTCLVKGFYPSDIAVEWESNGQPENNYKTTPPVLDSDGSFFLYSKLTVDKSRWQQGNVFSCSVMHEALHNHYTQKSLSLSPGSGGGGSGGGGSGGGGSPSEVQLLESGGGLVQPGGSLRLSCAASGFDFESYAMSWVRQAPGKCLEWVSAISGSGGSTYYADSVKGRFTISRDNSKNTLYLQMNSLRAEDTAVYYCARYYGGYYSAWMDYWGQGTLVTVSSGGGGSGGGGSGGGGSGGGGSDIQMTQSPSSLSASVGDRVTITCRASQSIRSALNWYQQKPGKAPKLLIYAASSLQSGVPSRFSGSGSGTDFTLTISSLQPEDFATYYCQQTYGYLHTFGCGTKLEIKR
notes: as for B1
For the molecule B2, the concentration giving a half-maximal response (EC50) with human 5T4 on cells [5] stood at 1.8 nM; in the experiment with cynomolgus 5T4 on cells, 7 nM; with human 5T4 on cells [1] it was 3.1 nM; in the experiment with human CD137 on cells [2], 1 nM; in experiment [4] it was 1.8 nM. For the same molecule, the “Maximum MFI” value in the experiment with human 5T4 on cells [5] was found to be 1070; with cynomolgus 5T4 on cells, 20600; with human 5T4 on cells [1] it was 13200. Further, in the experiment with human CD137 on cells [3], the “CD137 reporter assay with HCC1143 cells” value was no more than 6 fold lower EC50.

B3: ALG.APV-196 (bispecific antibody)
chain: EVQLLESGGGLVQPGGSLRLSCAASGFTFSYGSMYWVRQAPGKGLEWVSSISSGSGSTYYADSVKGRFTISHDNSKNTLYLQMNSLRAEDTAVYYCARSSYYGSYYSIDYWGQGTLVTVSSGGGGSGGGGSGGGGSGGGGSDIQMTQSPSSLSASVGDRVTITCRASQSISSYLNWYQQKPGKAPKLLIYAASSLQSGVPSRFSGSGSGTDFTLTISSLQPEDFATYYCQQYYDNLPTFGQGTKLEIKSSEPKSSDKTHTCPPCPAPEAAGAPSVFLFPPKPKDTLMISRTPEVTCVVVDVSHEDPEVKFNWYVDGVEVHNAKTKPREEQYNSTYRVVSVLTVLHQDWLNGKEYKCAVSNKALPAPIEKTISKAKGQPREPQVYTLPPSRDELTKNQVSLTCLVKGFYPSDIAVEWESNGQPENNYKTTPPVLDSDGSFFLYSKLTVDKSRWQQGNVFSCSVMHEALHNHYTQKSLSLSPGSGGGGSGGGGSGGGGSPSEVQLLESGGGLVQPGGSLRLSCAASGFDFESYAMSWVRQAPGKCLEWVSAISGSGGSTYYADSVKGRFTISRDNSKNTLYLQMNSLRAEDTAVYYCARYYGGYYSAWMDYWGQGTLVTVSSGGGGSGGGGSGGGGSGGGGSDIQMTQSPSSLSASVGDRVTITCRASQSIRSALNWYQQKPGKAPKLLIYAASSLQSGVPSRFSGSGSGTDFTLTISSLQPEDFATYYCQQTYGYLHTFGCGTKLEIKR
notes: as for B1
For B3, the concentration giving a half-maximal response (EC50) with human 5T4 on cells [5] is 1.7 nM; with cynomolgus 5T4 on cells, 7 nM; with human 5T4 on cells [1], 3.4 nM; with human CD137 on cells [2] it was 0.9 nM; in experiment [4], 1.8 nM. The “Maximum MFI” value in the experiment with human 5T4 on cells [5] turned out to be 1130; with cynomolgus 5T4 on cells, 21100; with human 5T4 on cells [1], 13500. The “CD137 reporter assay with HCC1143 cells” value with human CD137 on cells [3] was no more than 6 fold lower EC50.

(Values after US20190016816A1 (APTEVO RESEARCH AND DEVELOPMENT, published 2019).)
